Measurements reported in the supplement of paper PMC12855868.

B1: library; numbered along this chain (parent)
chain: MAAAGGARLLRAASAVLGGPAGRWLHHAGSRAGSSGLLRNRGPGGSAEASRSLSVSARARSSSEDKITVHFINRDGETLTTKGKVGDSLLDVVVENNLDIDGFGACEGTLACSTCHLIFEDHIYEKLDAITDEENDMLDLAYGLTDRSRLGCQICLTKSMDNMTVRVPETVADARQSIDVGKTS

Variants of: B1
Experiment: scaled log2 fold change in cell abundance, elesclomol vs control (0 = silent mean, 1 = nonsense mean) (scaled log2 ratio); higher = higher viability under elesclomol (loss of FDX1 cuproptosis function)
Settings: glucose 10 mM
Experimental: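 Deep mutational scan of full-length human FDX1: a pooled saturation-mutagenesis ORF library (every residue 2-184 mutated to all 19 amino acids plus stop, and silent codons where available) was expressed by lentivirus in FDX1-knockout ABC1 (14 days) or HEK293T (11 days) cells grown with elesclomol (ES) or DMSO control. Variant abundance came from ORF sequencing. The log2 fold change (ES vs control, mean of duplicates) was centred on the silent-variant mean (0) and scaled to the nonsense-variant mean (1). Higher values mean greater viability under ES, i.e. loss of FDX1 function in cuproptosis.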

[1] = with ABC1 FDX1 KO, elesclomol 5 nM, 14 days
[2] = with HEK293T FDX1 KO, elesclomol 40 nM, 11 days
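Further: variant abundance is its share of total variant reads in each endpoint sample, from next-generation sequencing of the integrated ORF PCR-amplified out of genomic DNA.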

Row | Variant | scaled log2 fold change [1] | scaled log2 fold change [2]
1 | G36C | -0.121 | 0.501
2 | G36D | -0.0689 | 0.737
3 | G36R | -0.252 | 0.0429
4 | G36T | 0.266 | 0.704
5 | G36V | -0.491 | -0.262
6 | G36S | 0.168 | -0.0207
7 | G36I | 0.0053 | -0.456
8 | G36Q | -0.138 | 0.311
9 | G36L | 0.19 | 0.873
10 | G36H | 0.443 | -1.19
11 | G36F | -0.16 | -0.239
12 | G36E | 0.292 | 0.257
13 | G36W | -0.615 | 1.33
14 | G36K | -0.118 | -0.253
15 | G36N | 0.0293 | 0.187
16 | G36Y | 0.0493 | -0.0699
17 | G36M | 0.149 | -0.00494
18 | A28M | -0.0504 | -0.198
19 | A28P | 0.56 | 0.292
20 | A28L | -0.00195 | –
21 | A28D | 0.233 | -0.109
22 | A28K | -0.114 | 0.248
23 | A28Y | -0.00855 | 0.974
24 | A28E | 0.301 | -0.431

Row | Variant | scaled log2 fold change [1] | scaled log2 fold change [2]
25 | A28F | 0.368 | 0.0914
26 | A28N | -0.0865 | -0.0101
27 | A28T | -0.152 | –
28 | A28I | -0.00142 | 0.691
29 | A28R | 0.246 | 2.14
30 | A28S | -0.179 | -0.13
31 | A28G | 0.336 | 1.17
32 | A28V | 0.133 | -0.408
33 | A28H | -0.736 | -0.127
34 | A28Q | 0.264 | 0.224
35 | A28W | -0.122 | 0.863
36 | A28C | 0.232 | 0.15
37 | L37D | -0.0765 | -0.369
38 | L37F | 0.0336 | 0.00175
39 | L37T | 0.382 | 0.567
40 | L37V | 0.412 | –
41 | L37Y | 0.353 | 0.0859
42 | L37M | 0.0458 | 0.0807
43 | L37Q | -0.0502 | -0.659
44 | L37G | 0.613 | -0.248
45 | L37P | 0.51 | 1.09
46 | L37R | -0.0271 | 0.0954
47 | L37H | -0.125 | -0.331
48 | L37W | 0.235 | -0.0987

Row | Variant | scaled log2 fold change [1] | scaled log2 fold change [2]
49 | L37E | -0.0101 | -0.121
50 | L37K | 0.0656 | -0.805
51 | L37C | -0.0306 | –
52 | L37S | 0.557 | -0.131
53 | S34A | -0.221 | -0.449
54 | S34L | 0.0704 | -0.513
55 | S34G | 0.285 | -0.277
56 | S34I | -0.128 | -0.488
57 | S34C | 0.0357 | 0.188
58 | S34Y | 0.029 | -0.188
59 | S34F | 0.0028 | -0.301
60 | S34K | 0.146 | -0.467
61 | S34H | 0.251 | -0.957
62 | S34R | -0.433 | 0.662
63 | S34P | -0.325 | -0.116
64 | S34N | 0.0794 | 0.424
65 | S34V | 0.0515 | -1.09
66 | S34W | 0.0117 | 0.853
67 | S34T | 0.125 | -0.0688
68 | S34E | -0.124 | -0.639
69 | S34D | 0.0928 | -0.389
70 | S34Q | -0.0397 | -0.168
71 | S34M | -0.108 | 0.216
72 | N40F | -0.01 | 0.266

Row | Variant | scaled log2 fold change [1] | scaled log2 fold change [2]
73 | N40E | 0.118 | –
74 | N40D | -0.359 | -0.577
75 | N40S | 0.213 | 0.0876
76 | N40C | -0.214 | 1.09
77 | N40T | -0.748 | -0.708
78 | N40P | -0.752 | 0.374
79 | N40W | -0.166 | -0.235
80 | N40M | -0.291 | 0.304
81 | N40V | 0.408 | -0.147
82 | N40Y | -0.412 | -0.381
83 | N40K | -0.0431 | 0.421
84 | N40L | -0.507 | 0.239
85 | N40I | 0.554 | -0.704
86 | N40R | 0.387 | 0.0477
87 | N40Q | -0.307 | 0.243
88 | S35N | 0.181 | -0.653
89 | S35H | -0.513 | 1.67
90 | S35Y | -0.531 | -0.958
91 | S35W | -0.0127 | -0.259
92 | S35F | -0.398 | 0.53
93 | S35K | 0.175 | 0.17
94 | S35G | -0.212 | -1.33
95 | S35R | -0.768 | -0.669
96 | S35V | 0.123 | -0.55

Row | Variant | scaled log2 fold change [1] | scaled log2 fold change [2]
97 | S35D | 0.267 | 1.13
98 | S35I | 0.293 | 0.132
99 | S35M | 0.309 | 0.0177
100 | S35P | -0.144 | –
101 | S35A | -0.0215 | 0.327
102 | S35E | -0.0617 | -0.644
103 | S35T | -0.263 | 0.526
104 | S35C | 0.0457 | 0.128
105 | S35Q | 0.169 | 0.0163
106 | S35L | -0.141 | -0.673
107 | H27V | 0.305 | 0.364
108 | H27Q | 0.286 | -0.318
109 | H27S | 0.273 | –
110 | H27R | 0.168 | -0.247
111 | H27W | -0.436 | 0.305
112 | H27Y | -0.231 | 0.0795
113 | H27T | -0.307 | –
114 | G33Q | -0.173 | -0.043
115 | G33Y | 0.0588 | 0.657
116 | G33I | 0.161 | 0.713
117 | G33S | 0.208 | -0.0845
